The record followed here is paper PMC8913300, “Two distinct classes of cochaperones compete for the EEVD motif in heat shock protein 70 to tune its chaperone activities” (The Journal of Biological Chemistry, 2022).

Several values for one entry are separate records, joined by “and”; a condition that tells them apart may be missing. Identical values can stand only once. No end group written: not given here.

To fix the notation:
B4: Hsp72 T636E tracer FITC-Ahx-GSGPEIEEVD (peptide)
peptide: GSGPEIEEVD-OH
modifications: not fully specified (N-terminus); printed as FITC-Ahx-GSGPEIEEVD; also: methods name the dye 5-FAM, not FITC
notes: also called phosphomimetic T636E Hsp72 fluorescent tracer; source: synthetic peptide, bought: GenScript
B7: C terminus of Hsc70 interacting protein (CHIP) (enzyme, human, UniProt Q9UNE7 1-303, looked up)
chain: MKGKEEKEGGARLGAGGGSPEKSPSAQELKEQGNRLFVGRKYPEAAACYGRAITRNPLVAVYYTNRALCYLKMQQHEQALADCRRALELDGQSVKAHFFLGQCQLEMESYDEAIANLQRAYSLAKEQRLNFGDDIPSALRIAKKKRWNSIEERRIHQESELHSYLSRLIAAERERELEECQRNHEGDEDDSHVRAQQACIEAKHDKYMADMDELFSQVDEKRKKRDIPDYLCGKISFELMREPCITPSGITYDRKDIEEHLQRVGHFDPVTRSPLTQEQLIPNLAMKEVIDAFISENGWVEDY
notes: recombinant human CHIP, E3 ubiquitin ligase with a TPR domain; source: E. coli BL21(DE3), purified (Ni-NTA, TEV cleavage, SEC); not shown: His6, N-terminal, cleaved

Holding throughout (conditions): both partners purified
Assay [1] has as its target T1, DnaJB4 (human, UniProt Q9UDY4 1-337).
T1 construct: DnaJB4, human, recombinant full length class B J-domain protein; the oligomeric state of DnaJB4 is not measured here; also called WT DnaJB4; class B JDP; source: E. coli BL21 (DE3) Rosetta, purified (Ni-NTA, TEV cleavage, SEC on Superdex 200); not shown: His6, N-terminal, cleaved
Put plainly: fluorescence polarisation; competition; 100 μM unlabeled peptide, 5 μM DnaJB4, 20 nM Hsp72 tracer in JDP binding buffer; 30 min at room temperature; tracer displacement relative to DMSO control. (In general: Polarisation of emitted light reports the rotation of a fluorescent probe.)

Assay [2] has as its target T1, DnaJB4. Put plainly: fluorescence polarisation; saturation binding; 20 nM fluorescent Hsp72 tracer, J-domain protein titrated in 2x dilutions (110-0.013 μM told for DnaJB4); 50 mM Tris, 15 mM NaCl, 1 mM DTT, 0.01% Triton X-100, pH 8.0; 30 min at room temperature.
The target in assay [3] is B7. Put plainly: fluorescence polarisation; competition; 100 μM unlabeled peptide, 1.58 μM CHIP, 20 nM Hsp72 tracer; 50 mM Hepes pH 7.4, 50 mM KCl, 0.01% Triton X-100; 30 min at room temperature.
Assay [4] deals with B4. Put plainly: fluorescence polarisation; saturation binding; 20 nM fluorescent Hsp72 tracer, CHIP titrated in 2x dilutions (110-0.013 μM); 25 mM Hepes, 50 mM KCl, 0.01% Triton X-100, pH 7.4; 30 min at room temperature.

As usually defined, the Kd is the equilibrium constant for the complex coming apart. Low values mean a tighter complex, high ones a looser complex.

T1 sequence (Q9UDY4 whole entry): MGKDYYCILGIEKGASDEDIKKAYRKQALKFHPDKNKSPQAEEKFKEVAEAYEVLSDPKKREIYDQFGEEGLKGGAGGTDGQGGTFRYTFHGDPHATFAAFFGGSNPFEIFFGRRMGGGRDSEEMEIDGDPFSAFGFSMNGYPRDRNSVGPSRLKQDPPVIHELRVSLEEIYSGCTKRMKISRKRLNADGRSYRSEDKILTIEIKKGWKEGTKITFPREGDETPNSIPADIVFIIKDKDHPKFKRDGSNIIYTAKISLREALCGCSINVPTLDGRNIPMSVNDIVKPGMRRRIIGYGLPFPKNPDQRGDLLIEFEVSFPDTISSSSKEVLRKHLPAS

B1: Hsp72 C-terminal peptide truncated of P10 (9-mer) (peptide, UniProt P0DMV8 633-641, looked up)
peptide: Ac-SGPTIEEVD-OH
notes: source: synthetic peptide, bought: GenScript
As for B1, the binding result with DnaJB4 [1] is “binds”.

B2: Hsp72 C-terminal peptide truncated of P10 to P8 (7-mer PTIEEVD) (peptide)
peptide: Ac-PTIEEVD-OH
notes: last seven amino acids of Hsp72/HSPA1A; source: synthetic peptide, bought: GenScript
As for B2, the binding result with DnaJB4 [1] is recorded as “binds”.

B3: Hsp72 C-terminal peptide truncated of P10 and P9 (8-mer) (peptide, UniProt P0DMV8 634-641, looked up)
peptide: Ac-GPTIEEVD-OH
notes: as for B1
In the case of B3, in the assay with DnaJB4 [1], the binding result is “binds”.
On to B4, for which, in the assay with DnaJB4 [2], the binding result was “binds”.

B5: Hsp72 C-terminal 10-mer peptide, unlabeled, N-acetylated (peptide)
peptide: Ac-GSGPTIEEVD-OH
notes: last 10 residues of Hsp72/HSPA1A; also called WT Hsp72 peptide; source: synthetic peptide, bought: GenScript
As for B5, the binding result in assay [3] is given as “binds”.

B6: Hsp72 10-mer peptide with P5 Ile replaced by Met (peptide, UniProt P0DMV8 632-641, looked up)
peptide: Ac-GSGPTMEEVD-OH
notes: also called P5 Met mutant; source: synthetic peptide, bought: GenScript
For the molecule B6, in the assay with DnaJB4 [1], the binding result is on record as “binds”.
With B7, the “fold weakening of the affinity against the WT tracer” value in assay [4] came out at 5 fold.

B8: Hsp72 tracer FITC-Ahx-GSGPTIEEVD (peptide)
peptide: GSGPTIEEVD-OH
modifications: not fully specified (N-terminus); printed as FITC-Ahx-GSGPTIEEVD; also: methods name the dye 5-FAM, not FITC
notes: last 10 residues of Hsp72/HSPA1A; also called fluorescent Hsp72 tracer; Hsp72 probe; source: synthetic peptide, bought: GenScript
As to B8, in the assay with DnaJB4 [2], the Kd is 1840 nM and 1650 nM. In addition, the binding result in assay [3] is reported as “binds”.
